# Article PMC12326010, “Substrate accessibility regulation of human TopIIa decatenation by cohesin” (Nature Communications, 2025)
# Biological target: the molecule itself
# Assay: single-molecule fluorescence intensity (confocal scans, optical tweezers); 2 nM TOP2α-AF555 bound at the junction of a DNA braid, 1 mM ATPγS (also four-braid substrates with ATP); 2D Gaussian fit of spot intensity, histogram of photon counts; 50 mM Tris pH 7.5, 125 mM potassium glutamate, 2.5 mM MgCl2, 0.5 mg/mL BSA
protein,measurement,value
"Human topoisomerase II alpha labelled with Alexa Fluor 555 (TOP2α-AF555) (enzyme, UniProt P11388 1-1531, looked up, Alexa555 conjugated CoA attached by SFP transferase to the ybbr tag (labelling efficiency ~30% or ~70%), Human topoisomerase II alpha (TOP2α), encoded from the pLIB vector with a C-terminal 3C-ybbr-tev-strepII tag; Two preparations: ~30% labelled (Strep-II tag apparently cleaved); The dimer rows rest on the ~30% preparation; also called TOP2α-Alexa555; TopIIa; source: baculovirus, SF9 or HighFive cells, purified (StrepTrap, HiTrap Heparin, size exclusion); not shown: ybbr, C-terminal, kept; StrepII, …) MEVSPLQPVNENMQVNKIKKNEDAKKRLSVERIYQKKTQLEHILLRPDTYIGSVELVTQQMWVYDEDVGINYREVTFVPGLYKIFDEILVNAADNKQRDPKMSCIRVTIDPENNLISIWNNGKGIPVVEHKVEKMYVPALIFGQLLTSSNYDDDEKKVTGGRNGYGAKLCNIFSTKFTVETASREYKKMFKQTWMDNMGRAGEMELKPFNGEDYTCITFQPDLSKFKMQSLDKDIVALMVRRAYDIAGSTKDVKVFLNGNKLPVKGFRSYVDMYLKDKLDETGNSLKVIHEQVNHRWEVCLTMSEKGFQQISFVNSIATSKGGRHVDYVADQIVTKLVDVVKKKNKGGVAVKAHQVKNHMWIFVNALIENPTFDSQTKENMTLQPKSFGSTCQLSEKFIKAAIGCGIVESILNWVKFKAQVQLNKKCSAVKHNRIKGIPKLDDANDAGGRNSTECTLILTEGDSAKTLAVSGLGVVGRDKYGVFPLRGKILNVREASHKQIMENAEINNIIKIVGLQYKKNYEDEDSLKTLRYGKIMIMTDQDQDGSHIKGLLINFIHHNWPSLLRHRFLEEFITPIVKVSKNKQEMAFYSLPEFEEWKSSTPNHKKWKVKYYKGLGTSTSKEAKEYFADMKRHRIQFKYSGPEDDAAISLAFSKKQIDDRKEWLTNFMEDRRQRKLLGLPEDYLYGQTTTYLTYNDFINKELILFSNSDNERSIPSMVDGLKPGQRKVLFTCFKRNDKREVKVAQLAGSVAEMSSYHHGEMSLMMTIINLAQNFVGSNNLNLLQPIGQFGTRLHGGKDSASPRYIFTMLSSLARLLFPPKDDHTLKFLYDDNQRVEPEWYIPIIPMVLINGAEGIGTGWSCKIPNFDVREIVNNIRRLMDGEEPLPMLPSYKNFKGTIEELAPNQYVISGEVAILNSTTIEISELPVRTWTQTYKEQVLEPMLNGTEKTPPLITDYREYHTDTTVKFVVKMTEEKLAEAERVGLHKVFKLQTSLTCNSMVLFDHVGCLKKYDTVLDILRDFFELRLKYYGLRKEWLLGMLGAESAKLNNQARFILEKIDGKIIIENKPKKELIKVLIQRGYDSDPVKAWKEAQQKVPDEEENEESDNEKETEKSDSVTDSGPTFNYLLDMPLWYLTKEKKDELCRLRNEKEQELDTLKRKSPSDLWKEDLATFIEELEAVEAKEKQDEQVGLPGKGGKAKGKKTQMAEVLPSPRGQRVIPRITIEMKAEAEKKNKKKIKNENTEGSPQEDGVELEGLKQRLEKKQKREPGTKTKKQTTLAFKPIKKGKKRNPWSDSESDRSSDESNFDVPPRETEPRRAATKTKFTMDLDSDEDFSDFDEKTDDEDFVPSDASPPKTKTSPKLSNKELKPQKSVVSDLEADDVKGSVPLSSSPPATHFPDETEITNPVPKKNVTVKKTAAKSQSSTSTTGAKKRAAPKGTKRDPALNSGVSQKPDPAKTKNRRKRKPSTSDDSDSNFEKIVSKAVTSKKSKGESDDFHMDFDSAVAPRAKSVRAKKPIKYLEESDEDDLF",stoichiometry N,2
